How the values were obtained:
[1] = tested on: D. citri stylet sheaths (ACP SSs); assay: Degradation of preformed, solidified stylet sheaths by enzymes (MFC membrane or slide incubation); parameters: species or system Diaphorina citri; key to Sheath Degradation: −: No effect apparent; +/−: inconclusive; +: apparent slight effect; ++: increased apparent effect; +++: high effect; ++++: very high effect; +++++: complete degradation of sheaths or inhibition of sheath synthesis; details: for Sheath Degradation: enzyme concentration, pH and temperature per Table 4 (cellulase 1:25, pH 6.0, 60° C.); for Effect on preformed D. citri stylet sheaths: cellulase 1:25, pH 6.0, 60° C., 72 hours, Flavourzyme about 30 minutes, proteinase K 55° C. overnight
Protocol: In order to test cellulase's effect on preformed ACP SSs, formed, solidified stylet sheaths were harvested directly from the surface of an MFC membrane (in these experiments either plastic wrap or parafilm was used) as described herein and in Morgan et al. 2013, supra. Approximately 100 psyllids were placed into an MFC for about 24 hours. The MFCs consisted of D. citri caged individually and/or in groups within 100 mm×15 mm plastic Petri dishes. A single kitchen plastic wrap layer was stretched across the top of each Petri dish to seal the Petri dish from insect escape and to provide a stylet penetrable surface for insect probing.
Several MFCs (the Petri dishes covered with kitchen plastic wrap or parafilm and containing D. citri) were placed into clear Pyrex® baking dishes with the membrane (kitchen plastic wrap or parafilm) side up, and the Pyrex® baking dish is covered with a single layer of clear kitchen plastic wrap to prevent external contaminant interactions with the membrane surface during incubation. MFCs were incubated at a temperature of about 25° C., relative humidity of about 75%, and a light:dark cycle of about 14:1. Collection of partial stylet sheaths, shaft/branching portions without the flange, was performed using deionized water applied directly to the sheath surface to wash the surface of the MFC, and then the application of approximately 100 μl of an approximately 50 mM sodium phosphate buffer at a pH of approximately 6.0 for direct harvest of partial sheaths from the membrane surface using a bent glass rod to scour the plastic wrap surface to dislodge the stylet sheaths. The sodium phosphate buffer containing dislodged sheath shafts was removed using a pipette and placed in a microcentrifuge tube (1.5 ml tube), and cellulase (Sigma #C2605, Sigma Aldrich, St. Louis, Mo.) was added by ratio at approximately 1 part cellulase to 25 parts sodium phosphate buffer (approximately 1:25 ratio). Approximately 15 μl was then transferred to a pre-cleaned glass slide (Fisher, #12-550-19, Thermo Fisher Scientific, Inc., Waltham Mass.), covered with a premium cover slip, and edges sealed using clear nail polish CG, 3INI NL #Q004 SHN ON (CoverGirl, Hunt Valley, Md.) to keep the buffer from evaporating during incubation. This slide was then placed in an approximately 60° C. incubator of about 72 hours and observed at about 24 hour intervals.
FIGS. 3A, 3B, and 3C and FIGS. 3D, 3E, and 3F are light micrograph pictures of repeated experiments representing separate treatment of two salivary sheaths. FIG. 3A and FIG. 3D are separate salivary sheaths prior to the addition of cellulase. FIG. 3B and FIG. 3E are the same sheaths, respectively, after 72 hours incubation with cellulase. FIG. 3C and FIG. 3F are the same sheaths, respectively, when gentle pressure was applied to the coverslip over the sheaths that had been incubated with cellulase for 72 hours. […] Because of the observed result with cellulase, sheath degradation experiments as described above for cellulase were performed using a number of polysaccharide-degrading enzymes and proteases. […] Both carbohydrate-degrading enzymes and proteases were effective at degrading the sheaths.
While not wishing to be bound to any particular hypothesis, based on the results of Examples 1, 2, and 3, it is hypothesized that the structure of the ACP SSs could include protein cross-links that are catalyzed by an enzyme with an oxidative role, an enzyme at least somewhat similar to a lysyl oxidase. To determine if a protein is associated with the identified glucan, proteases were tested in experiments similar to Examples 1 and 2 above. The following proteases were added individually in separate experiments (described infra) to membranes on which D. citri adults were previously allowed to first form sheaths in the absence of proteases: Flavourzyme® (a protease cocktail), carboxypeptidase W, chymopapain, bromelain, papain, ficin, licheninase, laminarinase, and β-(1→3)-D-glucanase. […]

[2] = tested on: D. citri; assay: Liquid ACP diet sandwich feeding assay (MFC): inhibition of de novo stylet sheath formation; assay type: in vivo, Diaphorina citri; details: about 24 h; cellulase approx 1 unit/μl; BAPN 100 mM; EDTA approx 2 mM; proteases per Table 5
Protocol: (§1) The next step was to determine if addition of cellulase to the diet of D. citri would interfere with stylet sheath formation. A D. citri diet is prepared as described by Hall, David et al., “Research toward an artificial diet for adult Asian citrus psyllid,” Annals of the Entomological Society of America 103.4:611-617 (2010). Approximately 25 D. citri were collected into polystyrene Cellstar 35 mm×10 mm dishes (Griener Bio-One, Monroe, N.C.) that were then sealed using a single layer of Parafilm® M (Pechiney Plastic Packaging Company, Chicago, Ill.). Approximately 99 μl of liquid ACP diet (e.g., diet lacking the solidifying agar component, see Hall, et. al., 2010, supra) was mixed with approximately 1 μl of cellulase (Sigma Aldrich, St. Louis, Mo.) and mixed. […]
(§2) Because many biomolecule polymerizing enzymes require divalent cations as cofactors, the effect of ethylenediaminetetraacetic acid (EDTA), a chelator of divalent cations, on ACP SS formation was tested by adding EDTA to the previously described liquid ACP diet (see Hall et al., 2010, supra). […] Uncommon bands between the liquid ACP diet containing EDTA and liquid ACP diet without EDTA (negative control) lanes were cut out and analyzed by Orbitrap (Thermo Scientific, Waltham, Mass.) protein analysis, according to manufacturer's protocol. […]

[3] = tested on: D. citri; assay: as above; assay type: in vivo, Diaphorina citri; parameters: key: −: No effect apparent; +/−: inconclusive; +: apparent slight effect; ++: increased apparent effect; +++: high effect; ++++: very high effect; +++++: complete degradation of sheaths or inhibition of sheath synthesis; details: enzyme in liquid ACP diet, about 24 h, 25° C., enzyme amounts and pH per Table 5 (cellulase approx 1 unit/μl)
Protocol: as §1, §2

B1: Proteinase K from Tritirachium album: Broad protease specificity; Fischer #BP1700-100 (protein, UniProt P06873 106-384, looked up)
Proteinase K: AAQTNAPWGLARISSTSPGTSTYYYDESAGQGSCVYVIDTGIEASHPEFEGRAQMVKTYYYSSRDGNGHGTHCAGTVGSRTYGVAKKTQLFGVKVLDDNGSGQYSTIIAGMDFVASDKNNRNCPKGVVASLSLGGGYSSSVNSAAARLQSSGVMVAVAAGNNNADARNYSPASEPSVCTVGASDRYDRRSSFSNYGSVLDIFGPGTSILSTWIGGSTRSISGTSMATPHVAGLAAYLMTLGKTTAASACRYIADTANKGDLSNIPFGTVNLLAYNNYQA
Sheath Degradation ([1]; D. citri preformed sheaths): +++++ | Effect on preformed D. citri stylet sheaths [1]: completely dissolves

B2: Amyloglucosidase from Aspergillus niger: Hydrolyses α-D-(1-4), α-D-(1-6) and α-D-(1-3) glucosidic bonds of oligosaccharides; Sigma #A7420 (protein, UniProt P69328 25-640, looked up)
Glucoamylase: ATLDSWLSNEATVARTAILNNIGADGAWVSGADSGIVVASPSTDNPDYFYTWTRDSGLVLKTLVDLFRNGDTSLLSTIENYISAQAIVQGISNPSGDLSSGAGLGEPKFNVDETAYTGSWGRPQRDGPALRATAMIGFGQWLLDNGYTSTATDIVWPLVRNDLSYVAQYWNQTGYDLWEEVNGSSFFTIAVQHRALVEGSAFATAVGSSCSWCDSQAPEILCYLQSFWTGSFILANFDSSRSGKDANTLLGSIHTFDPEAACDDSTFQPCSPRALANHKEVVDSFRSIYTLNDGLSDSEAVAVGRYPEDTYYNGNPWFLCTLAAAEQLYDALYQWDKQGSLEVTDVSLDFFKALYSDAATGTYSSSSSTYSSIVDAVKTFADGFVSIVETHAASNGSMSEQYDKSDGEQLSARDLTWSYAALLTANNRRNSVVPASWGETSASSVPGTCAATSAIGTYSSVTVTSWPSIVATGGTTTTATPTGSGSVTSTSKTTATASKTSTSTSSTSCTTPTAVAVTFDLTATTTYGENIYLVGSISQLGDWETSDGIALSADKYTSSDPLWYVTVTLPAGESFEYKFIRIESDDSVEWESDPNREYTVPQACGTSTATVTDTWR
Sheath Degradation, remark in words ([1]; D. citri preformed sheaths): Sheaths swell | Sheath Degradation ([1]; D. citri preformed sheaths): ++ | Effect on preformed D. citri stylet sheaths [1]: adversely impact stylet sheath integrity

B3: Papain from papaya latex: Cysteine peptidase; Sigma #P5306 (protein, UniProt P00784 134-345, looked up)
Papain: IPEYVDWRQKGAVTPVKNQGSCGSCWAFSAVVTIEGIIKIRTGNLNEYSEQELLDCDRRSYGCNGGYPWSALQLVAQYGIHYRNTYPYEGVQRYCRSREKGPYAAKTDGVRQVQPYNEGALLYSIANQPVSVVLEAAGKDFQLYRGGIFVGPCGNKVDHAVAAVGYGPNYILIKNSWGTGWGENGYIRIKRGTGNSYGVCGLYTSSFYPVKN
Sheath Degradation ([1]; D. citri preformed sheaths): ++ | Effect on D. citri stylet sheath formation in liquid ACP diet [2]: capable of inhibiting the formation of ACP SSs | Inhibition of Sheath Formation [3]: ++++

B4: Trypsin from bovine pancreas: Serine peptidase; Sigma #T8658 (protein, UniProt P00760 24-246, looked up)
Serine protease 1: IVGGYTCGANTVPYQVSLNSGYHFCGGSLINSQWVVSAAHCYKSGIQVRLGEDNINVVEGNEQFISASKSIVHPSYNSNTLNNDIMLIKLKSAASLNSRVASISLPTSCASAGTQCLISGWGNTKSSGTSYPDVLKCLKAPILSDSSCKSAYPGQITSNMFCAGYLEGGKDSCQGDSGGPVVCSGKLQGIVSWGSGCAQKNKPGVYTKVCNYVSWIKQTIASN
Sheath Degradation ([1]; D. citri preformed sheaths): − | Effect on D. citri stylet sheath formation in liquid ACP diet [2]: did not appear to have an inhibitory effect | Inhibition of Sheath Formation [3]: −

Reference: US9949489B2, “Methods for control of hemipteran insect stylet sheath structure formation” (The United States of America, as Represented by the …, priority 2015, dated 2018)
